# Laboratory results published in the RNAGym collection of RNA variant scans (doi:10.7554/elife.80360).
# B1: HDV Ribozyme (parent)
# chain: GGCCGGCAUGGUCCCAGCCUCCUCGCUGGCGCCGGCUGGGCAACAUUCCGAGGGGACCGUCCCCUCGGUAAUGGCGAAUGGGACCCA
# Variants of: B1
# Test: self-cleavage, relative activity (ratio to wild type); higher = more cleavage; co-transcriptional
row,Variant,self-cleavage
1,GGCCGGCAUGGUCCCAGCCUCCUCGCUGGCGCCGGCUGGGCAACAUUCCGAGGGGACCGUCCCCGCGGUAAUGCCGAAUGGGACCCA [U65G G74C],0.309
2,GGCCGGCAUGGUCCCAGCCUCCUCGCUGGCGCCGGCUGGGCAACAUUCCGAGGGGACCGUCCCCUAGGUAAUGGCGAAUGGGAACCA [C66A C84A],0.831
3,GGCCGGCAUGGUCCCAGCCUCCUCGCUGGCGCCGGCUGGGCAACAUUCCGAGGGGACCGUCCCCUAGGUAAUGGCGAAUGGGAUCCA [C66A C84U],0.696
4,GGCCGGCAUGGUCCCAGCCUCCUCGCUGGCGCCGGCUGGGCAACAUUCCGAGGGGACCGUCCCCCCGGUAAUGGCGAAAGGGACCCA [U65C U79A],0.644
5,GGCCGGCAUGGUCCCAGCCUCCUCGCUGGCGCCGGCUGGGCAACAUUCCGAGGGGACCGUCCCCCCGGUAAUGGCGAAGGGGACCCA [U65C U79G],0.396
6,GGCCGGCAUGGUCCCAGCCUCCUCGCUGGCGCCGGCUGGGCAACAUUCCGAGGGGACCGUCCCCCCGGUAAUGGCAAAUGGGACCCA [U65C G76A],0.918
7,GGCCGGCAUGGUCCCAGCCUCCUCGCUGGCGCCGGCUGGGCAACAUUCCGAGGGGACCGUCCCCCCGGUAAUGGCCAAUGGGACCCA [U65C G76C],1.09
8,GGCCGGCAUGGUCCCAGCCUCCUCGCUGGCGCCGGCUGGGCAACAUUCCGAGGGGACCGUCCCCCCGGUAAUGGCUAAUGGGACCCA [U65C G76U],1.14
9,GGCCGGCAUGGUCCCAGCCUCCUCGCUGGCGCCGGCUGGGCAACAUUCCGAGGGGACCGUCCCCGCGGUAAUGGCGAAUGGCACCCA [U65G G82C],0.133
10,GGCCGGCAUGGUCCCAGCCUCCUCGCUGGCGCCGGCUGGGCAACAUUCCGAGGGGACCGUCCCCCCGGUAAUGGCGAAUGGUACCCA [U65C G82U],0.567
11,GGCCGGCAUGGUCCCAGCCUCCUCGCUGGCGCCGGCUGGGCAACAUUCCGAGGGGACCGUCCCCCCGGUAAUGGCGAAUGGAACCCA [U65C G82A],0.554
12,GGCCGGCAUGGUCCCAGCCUCCUCGCUGGCGCCGGCUGGGCAACAUUCCGAGGGGACCGUCCCCCCGGUAAUGGCGAAUGUGACCCA [U65C G81U],0.415
13,GGCCGGCAUGGUCCCAGCCUCCUCGCUGGCGCCGGCUGGGCAACAUUCCGAGGGGACCGUCCCCCCGGUAAUGGCGAAUGAGACCCA [U65C G81A],0.358
14,GGCCGGCAUGGUCCCAGCCUCCUCGCUGGCGCCGGCUGGGCAACAUUCCGAGGGGACCGUCCCCCCGAUAAUGGCGAAUGGGACCCA [U65C G68A],0.959
15,GGCCGGCAUGGUCCCAGCCUCCUCGCUGGCGCCGGCUGGGCAACAUUCCGAGGGGACCGUCCCCUAGGUAAUGGCGAAUGGGACCCG [C66A A87G],0.898
16,GGCCGGCAUGGUCCCAGCCUCCUCGCUGGCGCCGGCUGGGCAACAUUCCGAGGGGACCGUCCCCGCGGAAAUGGCGAAUGGGACCCA [U65G U69A],1.23

row,Variant,self-cleavage
1,GGCCGGCAUGGUCCCAGCCUCCUCGCUGGCGCCGGCUGGGCAACAUUCCGAGGGGACCGUCCCCGCGGGAAUGGCGAAUGGGACCCA [U65G U69G],0.942
2,GGCCGGCAUGGUCCCAGCCUCCUCGCUGGCGCCGGCUGGGCAACAUUCCGAGGGGACCGUCCCCGCGAUAAUGGCGAAUGGGACCCA [U65G G68A],0.772
3,GGCCGGCAUGGUCCCAGCCUCCUCGCUGGCGCCGGCUGGGCAACAUUCCGAGGGGACCGUCCCCUAGGUAAUGGCGUAUGGGACCCA [C66A A77U],0.776
4,GGCCGGCAUGGUCCCAGCCUCCUCGCUGGCGCCGGCUGGGCAACAUUCCGAGGGGACCGUCCCCUAGGUAAUGGCGGAUGGGACCCA [C66A A77G],0.706
5,GGCCGGCAUGGUCCCAGCCUCCUCGCUGGCGCCGGCUGGGCAACAUUCCGAGGGGACCGUCCCCCCGGUAAUCGCGAAUGGGACCCA [U65C G73C],0.283
6,GGCCGGCAUGGUCCCAGCCUCCUCGCUGGCGCCGGCUGGGCAACAUUCCGAGGGGACCGUCCCCGCGGUAAAGGCGAAUGGGACCCA [U65G U72A],0.739
7,GGCCGGCAUGGUCCCAGCCUCCUCGCUGGCGCCGGCUGGGCAACAUUCCGAGGGGACCGUCCCCGCGGUAACGGCGAAUGGGACCCA [U65G U72C],0.415
8,GGCCGGCAUGGUCCCAGCCUCCUCGCUGGCGCCGGCUGGGCAACAUUCCGAGGGGACCGUCCCCGCGGUAAUCGCGAAUGGGACCCA [U65G G73C],0.289
9,GGCCGGCAUGGUCCCAGCCUCCUCGCUGGCGCCGGCUGGGCAACAUUCCGAGGGGACCGUCCCCGCGGUAAUUGCGAAUGGGACCCA [U65G G73U],0.47
10,GGCCGGCAUGGUCCCAGCCUCCUCGCUGGCGCCGGCUGGGCAACAUUCCGAGGGGACCGUCCCCGCGGUAAUGGCGAAUGGGACCCA [U65G],0.988
11,GGCCGGCAUGGUCCCAGCCUCCUCGCUGGCGCCGGCUGGGCAACAUUCCGAGGGGACCGUCCCCGCGGUAAUGGCGCAUGGGACCCA [U65G A77C],0.356
12,GGCCGGCAUGGUCCCAGCCUCCUCGCUGGCGCCGGCUGGGCAACAUUCCGAGGGGACCGUCCCCGCGGUAAUGGCGAAUGGGAUCCA [U65G C84U],0.704
13,GGCCGGCAUGGUCCCAGCCUCCUCGCUGGCGCCGGCUGGGCAACAUUCCGAGGGGACCGUCCCCGCGGUAAUGGCGAAUGGGAGCCA [U65G C84G],0.569
14,GGCCGGCAUGGUCCCAGCCUCCUCGCUGGCGCCGGCUGGGCAACAUUCCGAGGGGACCGUCCCCCCGGUAAGGGCGAAUGGGACCCA [U65C U72G],0.831
15,GGCCGGCAUGGUCCCAGCCUCCUCGCUGGCGCCGGCUGGGCAACAUUCCGAGGGGACCGUCCCCGCGGUACUGGCGAAUGGGACCCA [U65G A71C],0.755
16,GGCCGGCAUGGUCCCAGCCUCCUCGCUGGCGCCGGCUGGGCAACAUUCCGAGGGGACCGUCCCCGCGGUAGUGGCGAAUGGGACCCA [U65G A71G],0.917
